# From US20120149645A1, “COMPOSITIONS AND MODULATION OF MYOCYTE ENHANCER FACTOR 2 (MEF2)” (EMORY UNIVERSITY, priority 2010, published 2012)
# B1: Mt2Ddn: Mitochondria-targeting dominant-negative MEF2D: mouse MEF2D 1-131aa with mitochondria-targeting signal, lacks the transactivation domain (protein, UniProt Q63943 1-131, looked up, fragment)
# chain: MGRKKIQIQRITDERNRQVTFTKRKFGLMKKAYELSVLCDCEIALIIFNHSNKLFQYASTDMDKVLLKYTEYNEPHESRTNADIIETLRKKGFNGCDSPEPDGEDSLEQSPLLEDKYRRASEELDGLFRRY
# modifications: mitochondria-targeting signal added
# Tested on: SN4741 cells
# Experiment: WST-1 cell viability assay
# Type: cell-based, mouse
# Method: (A) Reduced binding of MEF2D to ND6 after neurotoxin treatment. SN4741 cells were treated with MPP+ (25 μM) or rotenone (Rot, 100 nM) for 12 hours. […] Control indicates untreated. […] Control indicates untreated. (C) Immunocytochemical analysis of mitochondrial MEF2D after MPP+ and rotenone treatment. SN4741 cells treated as described in (A) were stained (scale bar, 10 μm). […] Experiments were repeated four times. Control indicates untreated. […] SN4741 cells were treated with MPP+ after infection with the control, Mt2Ddn or Mt2DVP16 or MtND6 lentiviruses for 24 hours (upper graph: different doses of MPP+ for 24 hours; lower graph: 5 μM of MPP+ for different times). Cell viability was measured by WST-1 assay (n=4; *p<0.05; **P<0.01). Control indicates the control vector group.
# WST-1 assay was done using a kit (cat. no. 11644807001) from Roche and following procedures provided by the manufacturer. WST-1 (4-[3-(4-Iodophenyl)-2-(4-nitrophenyl)-2H-5-tetrazolio]-1,3-benzene disulfonate) is a water-soluble tetrazolium salt whose cleavage by cellular enzymes correlates with cell viability. Cells were seeded in 96-well plates and treated as indicated. Than 10 μl/well of premixed WST-1 Cell Proliferation Reagent was added, and the cells were incubated for an additional 4 hr under the same conditions. Absorbance at 450 nm was measured on a multi-well plate reader (Bio-Tek).
molecule,measurement,setting,value
B1,sensitivity of cells to low dose MPP+ toxicity,"SN4741 cells infected with lentivirus 24 hours, then different doses of MPP+ for 24 hours",clearly sensitized
same,cellular viability over time,"SN4741 cells infected with lentivirus, 5 μM MPP+ for different times",impaired
